The text below walks through data of PMC11754664, “DNA binding and transposition activity of the Sleeping Beauty transposase: role of structural stability of the primary DNA-binding domain”.

Series [1] deals with T1, SB10 transposase (synthetic Sleeping Beauty transposon). As to the kind of experiment: MST; specific (first) transition; Full-length MST: 50 mM Tris pH 7.5, 5 mM MgCl2, 300 mM NaCl, 2% glycerol, 50 mM Arg-Glu, 1 mM TCEP, 0.1% Triton X-100, 0.1 mg/ml BSA, 30 nM Cy5-DNA, room temp. Conditions: protein: recombinant; tags: Ni-NTA purified; label: 5' Cy5 on forward strand (MST).

The target of series [2] is T2, SB100X transposase (synthetic Sleeping Beauty transposon, K14R;K33A;R115H;R214D;K215A;E216V;N217Q;M243H;T314N). The description is as above. The settings on record: protein: recombinant; tags: Ni-NTA purified; label: 5' Cy5 on forward strand (MST).
Series [3] has as its target T3, SB100X-H19Y (synthetic Sleeping Beauty transposon, K14R;H19Y;K33A;R115H;R214D;K215A;E216V;N217Q;M243H;T314N). As to the kind of experiment: MST; Full-length MST: 50 mM Tris pH 7.5, 5 mM MgCl2, 300 mM NaCl, 2% glycerol, 50 mM Arg-Glu, 1 mM TCEP, 0.1% Triton X-100, 0.1 mg/ml BSA, 30 nM Cy5-DNA, room temp. Conditions: protein: recombinant; tags: Ni-NTA purified; label: 5' Cy5 on forward strand (MST).

Series [4] deals with T4, SB10-H19Y (synthetic Sleeping Beauty transposon, H19Y). The series is described as above. Conditions: protein: recombinant; tags: Ni-NTA purified; label: 5' Cy5 on forward strand (MST).
The target in series [5] is T5, H19Y (PAI K14R/H19Y/K33A) (synthetic Sleeping Beauty transposon, UniProt PDB:6URS_1, K14R;H19Y;K33A). As to the kind of experiment: NMR; HSQC and PFG diffusion, pH 5.2, 35 C, 1:5; monomeric complex; Full-length MST: 50 mM Tris pH 7.5, 5 mM MgCl2, 300 mM NaCl, 2% glycerol, 50 mM Arg-Glu, 1 mM TCEP, 0.1% Triton X-100, 0.1 mg/ml BSA, 30 nM Cy5-DNA, room temp. Conditions: protein: recombinant; tags: Ni-NTA purified; label: 5' Cy5 on forward strand (MST).

Series [6] deals with T1, SB10 transposase. As to the kind of experiment: fluorescence anisotropy; Full-length MST: 50 mM Tris pH 7.5, 5 mM MgCl2, 300 mM NaCl, 2% glycerol, 50 mM Arg-Glu, 1 mM TCEP, 0.1% Triton X-100, 0.1 mg/ml BSA, 30 nM Cy5-DNA, room temp. Conditions: protein: recombinant; tags: Ni-NTA purified; label: 5' Cy5 on forward strand (MST). Background: In fluorescence polarisation assays a small probe gives low polarisation when free and higher when bound to something large.

In series [7] the target is T3, SB100X-H19Y. Described as above. Conditions: protein: recombinant; tags: Ni-NTA purified; label: 5' Cy5 on forward strand (MST).
The target of series [8] is T4, SB10-H19Y. Described as above. Conditions: protein: recombinant; tags: Ni-NTA purified; label: 5' Cy5 on forward strand (MST).
The target of series [9] is T2, SB100X transposase. Described as above. The settings on record: protein: recombinant; tags: Ni-NTA purified; label: 5' Cy5 on forward strand (MST).
For series [10], the target named is T1, SB10 transposase. As to the kind of experiment: fluorescence lifetime; Full-length MST: 50 mM Tris pH 7.5, 5 mM MgCl2, 300 mM NaCl, 2% glycerol, 50 mM Arg-Glu, 1 mM TCEP, 0.1% Triton X-100, 0.1 mg/ml BSA, 30 nM Cy5-DNA, room temp. Conditions: protein: recombinant; tags: Ni-NTA purified; label: 5' Cy5 on forward strand (MST).
Series [11] addresses T3, SB100X-H19Y. The series is described as above. The settings on record: protein: recombinant; tags: Ni-NTA purified; label: 5' Cy5 on forward strand (MST).
Series [12] addresses T4, SB10-H19Y. The description is as above. The settings on record: protein: recombinant; tags: Ni-NTA purified; label: 5' Cy5 on forward strand (MST).
The target in series [13] is T2, SB100X transposase. Described as above. The settings on record: protein: recombinant; tags: Ni-NTA purified; label: 5' Cy5 on forward strand (MST).
Series [14] addresses T5, H19Y (PAI K14R/H19Y/K33A). As to the kind of experiment: NMR; HSQC, pH 5.2, 35 C, 1:4.5 protein:DNA; Full-length MST: 50 mM Tris pH 7.5, 5 mM MgCl2, 300 mM NaCl, 2% glycerol, 50 mM Arg-Glu, 1 mM TCEP, 0.1% Triton X-100, 0.1 mg/ml BSA, 30 nM Cy5-DNA, room temp. The settings on record: protein: recombinant; tags: Ni-NTA purified; label: 5' Cy5 on forward strand (MST).
The target of series [15] is T1, SB10 transposase. As to the kind of experiment: MST; nonspecific, monophasic; Full-length MST: 50 mM Tris pH 7.5, 5 mM MgCl2, 300 mM NaCl, 2% glycerol, 50 mM Arg-Glu, 1 mM TCEP, 0.1% Triton X-100, 0.1 mg/ml BSA, 30 nM Cy5-DNA, room temp. The settings on record: protein: recombinant; tags: Ni-NTA purified; label: Cy5 (5' forward strand).
The target of series [16] is T2, SB100X transposase. The series is described as above. Conditions: protein: recombinant; tags: Ni-NTA purified; label: Cy5 (5' forward strand).
For series [17], the target named is T3, SB100X-H19Y. As to the kind of experiment: MST; nonspecific; Full-length MST: 50 mM Tris pH 7.5, 5 mM MgCl2, 300 mM NaCl, 2% glycerol, 50 mM Arg-Glu, 1 mM TCEP, 0.1% Triton X-100, 0.1 mg/ml BSA, 30 nM Cy5-DNA, room temp. Conditions: protein: recombinant, tags: Ni-NTA purified.
In series [18] the target is T5, H19Y (PAI K14R/H19Y/K33A). Description: NMR; HSQC and PFG diffusion, pH 5.2, 35 C; monomeric complex; Full-length MST: 50 mM Tris pH 7.5, 5 mM MgCl2, 300 mM NaCl, 2% glycerol, 50 mM Arg-Glu, 1 mM TCEP, 0.1% Triton X-100, 0.1 mg/ml BSA, 30 nM Cy5-DNA, room temp. The settings on record: protein: recombinant; tags: Ni-NTA purified; label: 5' Cy5 on forward strand (MST).

B1: Li (dsDNA)
DNA 1: TCCAGTGGGTCAGAAGTTTACATACACTAAGT
DNA 2: ACTTAGTGTATGTAAACTTCTGACCCACTGGA
By Kd is commonly meant the free concentration of one partner at which half of the binding sites on the other are occupied at equilibrium, for simple one-to-one binding. On to B1, for which the Kd came out at 17.3 ± 1.2 nM in the series with SB10 transposase [1]; 23.6 ± 2.2 nM with SB100X transposase [2]; 10.3 ± 0.8 nM with SB100X-H19Y [3]; 10.2 ± 0.9 nM in the series with SB10-H19Y [4]; 19.3 ± 2.8 nM with SB10 transposase [6]; 16 ± 3.2 nM with SB100X-H19Y [7]. The dissociation constant Kd with SB10-H19Y [8] is 18.2 ± 2.2 nM; with SB100X transposase [9] it was 27.6 ± 4.9 nM; with SB10 transposase [10], 17.2 ± 0.8 nM; in the series with SB100X-H19Y [11], 16.2 ± 2.3 nM; in the series with SB10-H19Y [12], 16 ± 0.7 nM; with SB100X transposase [13] it was 25.9 ± 2.3 nM. The binding result in series [5] was “binds”.

B2: DR-core (dsDNA)
DNA 1: TCGGAAGTTTACATACAC
DNA 2: GTGTATGTAAACTTCCGA
As for B2, the binding result in series [14] is listed as “binds”. Besides, the Kd with SB10 transposase [1] stood at 25.3 ± 0.9 nM; in the series with SB100X transposase [2], 17.3 ± 1.1 nM; with SB100X-H19Y [3], 31.2 ± 11.1 nM; with SB10-H19Y [4], 31.1 ± 2.3 nM; in the series with SB10 transposase [6] it was 37 ± 4 nM; in the series with SB10-H19Y [8] it was 51.3 ± 8.3 nM. For the same molecule, the Kd in the series with SB100X transposase [9] was found to be 35.1 ± 6.6 nM; with SB10 transposase [10] it was 29.4 ± 2 nM; in the series with SB10-H19Y [12] it was 45.4 ± 4.8 nM; in the series with SB100X transposase [13], 31.6 ± 3.4 nM.

B3: NS1 (dsDNA)
DNA 1: ACCTTCCTCCGCAATACTCCCCCAGGT
DNA 2: ACCTGGGGGAGTATTGCGGAGGAAGGT
In the case of B3, the Kd was 2600 ± 160 nM in the series with SB10 transposase [15], 560 ± 40 nM in the series with SB100X transposase [16] and 2710 ± 210 nM with SB100X-H19Y [17] (label: Cy5 (5' forward strand)).

B4: Lo (dsDNA)
DNA 1: CAGTTGAAGTCGGAAGTTTACATACACTTAAG
DNA 2: CTTAAGTGTATGTAAACTTCCGACTTCAACTG
Turning to B4, the Kd turned out to be 16.6 ± 2.6 nM with SB10 transposase [1]; 23 ± 1.9 nM in the series with SB100X transposase [2]; 29.7 ± 3.5 nM in the series with SB100X-H19Y [3]; 11.6 ± 1.8 nM with SB10-H19Y [4]; 23.9 ± 2.8 nM with SB10 transposase [6]; 17.3 ± 2.2 nM in the series with SB100X-H19Y [7]. The dissociation constant (Kd) with SB10-H19Y [8] worked out at 9.73 ± 2.5 nM; in the series with SB100X transposase [9], 13.7 ± 2.8 nM; with SB10 transposase [10] it was 23 ± 2.2 nM; with SB100X-H19Y [11], 20.6 ± 0.8 nM; with SB10-H19Y [12] it was 13.2 ± 1.1 nM; with SB100X transposase [13], 16 ± 2.6 nM. In addition, the binding result in [18] is “binds”.

B5: NS2 (dsDNA)
DNA 1: CGGTCTTTCCGTCTT
DNA 2: AAGACGGAAAGACCG
As to B5, in the series with SB100X-H19Y [17], the equilibrium dissociation constant (Kd) was determined as 3430 ± 240 nM.
